Laboratory results taken from paper PMC6796926, “Pioneering function of Isl1 in the epigenetic control of cardiomyocyte cell fate”.

Key:
[1] = biological target: T1, Isl1 homeodomain (Isl1-HD) (UniProt P61372 181-240); assay: EMSA; 0-1 uM Isl1; 40 mM KCl, 15 mM HEPES pH 8.0, 1 mM EDTA, 0.5 mM DTT, 2 mM MgCl2, 5% glycerol, 10 ng/ul poly dI/dC, 0.1 mg/ml BSA, 30 min, RT; 4% PAGE in 0.5x TBE; conditions: protein: recombinant; tags: 6xHis; label: biotin (PCR primers); blunt
T1 sequence: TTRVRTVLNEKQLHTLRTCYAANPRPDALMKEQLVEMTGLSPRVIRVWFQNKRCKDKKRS

[2] = biological target: T1, Isl1 homeodomain (Isl1-HD); assay: competition; 80x excess vs free and nucleosomal Ttn DNA, 0.5 uM Isl1; 40 mM KCl, 15 mM HEPES pH 8.0, 1 mM EDTA, 0.5 mM DTT, 2 mM MgCl2, 5% glycerol, 10 ng/ul poly dI/dC, 0.1 mg/ml BSA, 30 min, RT; 4% PAGE in 0.5x TBE; conditions: protein: recombinant; tags: 6xHis; blunt

| Binder | binding result [1] | binding result [2] |
| --- | --- | --- |
| free Ttn DNA (dsDNA) DNA 1: CGGTGTCTGCTATCACTCAGTTTCATCCCTTTCTTCCCAAATGGCCAGTTTCATGTTGTGTATCTTGACAGTGACTCCCAACCAGAGACTCCTGTTAAGGGAACTTGTCAGTCATAATAGACAATAAGTGAACTTCTTGTTCGGGGTGCTCAATAATTTGCT DNA 2: AGCAAATTATTGAGCACCCCGAACAAGAAGTTCACTTATTGTCTATTATGACTGACAAGTTCCCTTAACAGGAGTCTCTGGTTGGGAGTCACTGTCAAGATACACAACATGAAACTGGCCATTTGGGAAGAAAGGGATGAAACTGAGTGATAGCAGACACCG | binds | – |
| specific competitor (Insulin enhancer) (dsDNA) DNA 1: CCCTTGTTAAGACTCTAATTACCCTAG DNA 2: CTAGGGTAATTAGAGTCTTAACAAGGG | – | binds |
| nonspecific competitor (NS) (dsDNA) DNA 1: CAAGCAAAACAAACCA DNA 2: TGGTTTGTTTTGCTTG | – | no binding |
